According to IntAct's records for PubMed 24286120:

B1: Malignant fibrous histiocytoma-amplified sequence 1 (Homo sapiens), Q9Y4C4 (parent)
chain: MAGMDSGNLKTARLWRDAALRARKLRSNLRQLTLTAAGACPGAGADALESPASPQLVLPANLGDIEALNLGNNGLEEVPEGLGSALGSLRVLVLRRNRFARLPPAVAELGHHLTELDVSHNRLTALGAEVVSALRELRKLNLSHNQLPALPAQLGALAHLEELDVSFNRLAHLPDSLSCLSRLRTLDVDHNQLTAFPRQLLQLVALEELDVSSNRLRGLPEDISALRALKILWLSGAELGTLPAGFCELASLESLMLDNNGLQALPAQFSCLQRLKMLNLSSNLFEEFPAALLPLAGLEELYLSRNQLTSVPSLISGLGRLLTLWLDNNRIRYLPDSIVELTGLEELVLQGNQIAVLPDHFGQLSRVGLWKIKDNPLIQPPYEVCMKGIPYIAAYQKELAHSQPAVQPRLKLLLMGHKAAGKTLLRHCLTEERVEGCPGGGDKEKCYPPSPPPVSKGIEVTSWTADASRGLRFIVYDLAGDESYEVIQPFFLSPGALYVLVVNLATYEPRHFPTTVGSFLHRVGARVPHAVVCIVGTHADLCGERELEEKCLDIHRQIALQEKHDAEGLSRLAKVVDEALARDFELRSASPHAAYYGVSDKNLRRRKAHFQYLLNHRLQILSPVLPVSCRDPRHLRRLRDKLLSVAEHREIFPNLHRVLPRSWQVLEELHFQPPQAQRLWLSWWDSARLGLQAGLTEDRLQSALSYLHESGKLLYFEDSPALKEHVFHNLTRLIDILNVFFQRDPSLLLHKLLLGTSGEGKAEGESSPPMARSTPSQELLRATQLHQYVEGFLLHGLLPAHVIRLLLKPHVQAQQDLQLLLELLEKMGLCYCLNKPKGKPLNGSTAWYKFPCYVQNEVPHAEAWINGTNLAGQSFVAEQLQIEYSFPFTFPLGLFARYSVQINSHVVHRSDGKFQIFAYRGKVPVVVSYRPARGVLQPDTLSIASHASLPNIWTAWQAITPLVEELNVLLQEWPGLHYTVHILCSKCLKRGSPNPHAFPGELLSQPRPEGVAEIICPKNGSERVNVALVYPPTPTVISPCSKKNVGEKHRNQ

Variants of: B1
Details: with ch60_human HSPD1, P10809
Chain of ch60_human HSPD1, P10809 (P10809 whole entry): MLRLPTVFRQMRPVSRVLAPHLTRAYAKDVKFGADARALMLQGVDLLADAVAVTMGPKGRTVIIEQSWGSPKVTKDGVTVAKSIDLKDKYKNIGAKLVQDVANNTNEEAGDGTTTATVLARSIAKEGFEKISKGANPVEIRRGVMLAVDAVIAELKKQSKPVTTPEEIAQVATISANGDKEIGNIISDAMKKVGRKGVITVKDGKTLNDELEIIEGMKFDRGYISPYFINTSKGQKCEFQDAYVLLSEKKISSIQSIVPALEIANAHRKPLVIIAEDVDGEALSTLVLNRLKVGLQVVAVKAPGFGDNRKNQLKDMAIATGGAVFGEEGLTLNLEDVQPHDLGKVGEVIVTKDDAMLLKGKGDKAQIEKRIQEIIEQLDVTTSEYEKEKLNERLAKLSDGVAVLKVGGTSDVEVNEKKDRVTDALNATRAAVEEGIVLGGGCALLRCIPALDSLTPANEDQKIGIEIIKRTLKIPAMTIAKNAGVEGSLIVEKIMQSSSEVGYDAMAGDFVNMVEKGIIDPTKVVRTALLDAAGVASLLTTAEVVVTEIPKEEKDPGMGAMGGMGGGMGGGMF

Variant	effect of a mutation on the interaction
K422A	increasing interaction
